This note sets out measurements from patent publication US20180155451A1 (published 2018).

Sequences and labels used below:
B1: GpH7-B3 variant G237_02A/GpL16-k0 (antibody, human IgG1, kappa)
heavy: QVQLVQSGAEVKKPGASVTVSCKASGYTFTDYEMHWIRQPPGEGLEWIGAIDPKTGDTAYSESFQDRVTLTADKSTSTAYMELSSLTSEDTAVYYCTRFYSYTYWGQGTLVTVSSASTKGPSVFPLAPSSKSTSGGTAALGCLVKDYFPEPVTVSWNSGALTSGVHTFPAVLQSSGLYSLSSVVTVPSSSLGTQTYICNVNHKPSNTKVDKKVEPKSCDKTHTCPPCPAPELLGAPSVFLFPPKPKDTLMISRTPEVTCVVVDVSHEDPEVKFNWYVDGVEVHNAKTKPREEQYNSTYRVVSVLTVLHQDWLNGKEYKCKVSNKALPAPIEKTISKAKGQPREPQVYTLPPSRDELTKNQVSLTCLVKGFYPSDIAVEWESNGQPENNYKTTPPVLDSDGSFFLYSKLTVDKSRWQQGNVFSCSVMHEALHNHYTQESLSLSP
light: DIVMTQSPLSLPVTPGEPASISCQASESLVHSNRNTYLHWYLQKPGQSPQLLIYKVSNRFSGVPDRFSGSGSGTDFTLKISRVEAEDVGVYYCSQNTHVPPTFGQGTKVEIERTVAAPSVFIFPPSDEQLKSGTASVVCLLNNFYPREAKVQWKVDNALQSGNSQESVTEQDSKDSTYSLSSTLTLSKADYEKHKVYACEVTHQGLSSPVTKSFNRGEC
notes: also called Ho Ab G237_02A
B2: GpH7-B3 variant G237_18N/GpL16-k0 (antibody, human IgG1, kappa)
heavy: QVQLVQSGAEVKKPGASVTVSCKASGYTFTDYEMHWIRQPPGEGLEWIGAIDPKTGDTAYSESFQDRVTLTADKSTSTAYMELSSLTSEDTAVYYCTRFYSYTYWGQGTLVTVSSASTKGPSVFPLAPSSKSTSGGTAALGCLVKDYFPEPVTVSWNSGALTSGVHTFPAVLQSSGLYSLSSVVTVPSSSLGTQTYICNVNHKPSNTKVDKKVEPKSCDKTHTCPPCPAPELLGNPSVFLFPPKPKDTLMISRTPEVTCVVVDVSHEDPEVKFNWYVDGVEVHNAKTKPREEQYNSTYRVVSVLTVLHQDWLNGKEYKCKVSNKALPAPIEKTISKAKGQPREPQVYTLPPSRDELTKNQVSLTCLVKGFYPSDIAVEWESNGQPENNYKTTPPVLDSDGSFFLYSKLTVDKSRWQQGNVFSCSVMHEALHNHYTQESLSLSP
light: DIVMTQSPLSLPVTPGEPASISCQASESLVHSNRNTYLHWYLQKPGQSPQLLIYKVSNRFSGVPDRFSGSGSGTDFTLKISRVEAEDVGVYYCSQNTHVPPTFGQGTKVEIERTVAAPSVFIFPPSDEQLKSGTASVVCLLNNFYPREAKVQWKVDNALQSGNSQESVTEQDSKDSTYSLSSTLTLSKADYEKHKVYACEVTHQGLSSPVTKSFNRGEC
notes: also called Ho Ab G237_18N
B3: GpH7-B3 variant A330_05P/GpL16-k0 (antibody, human IgG1, kappa)
heavy: not shown
light: DIVMTQSPLSLPVTPGEPASISCQASESLVHSNRNTYLHWYLQKPGQSPQLLIYKVSNRFSGVPDRFSGSGSGTDFTLKISRVEAEDVGVYYCSQNTHVPPTFGQGTKVEIERTVAAPSVFIFPPSDEQLKSGTASVVCLLNNFYPREAKVQWKVDNALQSGNSQESVTEQDSKDSTYSLSSTLTLSKADYEKHKVYACEVTHQGLSSPVTKSFNRGEC
notes: also called Ho Ab A330_05P
B4: GpH7-B3 variant G237_19Q/GpL16-k0 (antibody, human IgG1, kappa)
heavy: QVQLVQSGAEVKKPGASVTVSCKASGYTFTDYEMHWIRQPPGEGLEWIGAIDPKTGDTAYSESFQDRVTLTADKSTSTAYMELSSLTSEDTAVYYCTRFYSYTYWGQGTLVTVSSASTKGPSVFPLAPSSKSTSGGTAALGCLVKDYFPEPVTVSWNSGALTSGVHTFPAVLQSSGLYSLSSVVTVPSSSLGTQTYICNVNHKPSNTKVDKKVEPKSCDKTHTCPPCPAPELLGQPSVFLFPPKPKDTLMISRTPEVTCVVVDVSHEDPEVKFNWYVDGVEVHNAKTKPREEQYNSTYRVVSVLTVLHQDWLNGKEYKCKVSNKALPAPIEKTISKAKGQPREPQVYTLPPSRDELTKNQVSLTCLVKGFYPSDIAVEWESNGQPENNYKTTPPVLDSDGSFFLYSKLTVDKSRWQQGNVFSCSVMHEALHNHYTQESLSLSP
light: DIVMTQSPLSLPVTPGEPASISCQASESLVHSNRNTYLHWYLQKPGQSPQLLIYKVSNRFSGVPDRFSGSGSGTDFTLKISRVEAEDVGVYYCSQNTHVPPTFGQGTKVEIERTVAAPSVFIFPPSDEQLKSGTASVVCLLNNFYPREAKVQWKVDNALQSGNSQESVTEQDSKDSTYSLSSTLTLSKADYEKHKVYACEVTHQGLSSPVTKSFNRGEC
notes: also called Ho Ab G237_19Q
B5: GpH7-B3 variant A330_01G/GpL16-k0 (antibody, human IgG1, kappa)
heavy: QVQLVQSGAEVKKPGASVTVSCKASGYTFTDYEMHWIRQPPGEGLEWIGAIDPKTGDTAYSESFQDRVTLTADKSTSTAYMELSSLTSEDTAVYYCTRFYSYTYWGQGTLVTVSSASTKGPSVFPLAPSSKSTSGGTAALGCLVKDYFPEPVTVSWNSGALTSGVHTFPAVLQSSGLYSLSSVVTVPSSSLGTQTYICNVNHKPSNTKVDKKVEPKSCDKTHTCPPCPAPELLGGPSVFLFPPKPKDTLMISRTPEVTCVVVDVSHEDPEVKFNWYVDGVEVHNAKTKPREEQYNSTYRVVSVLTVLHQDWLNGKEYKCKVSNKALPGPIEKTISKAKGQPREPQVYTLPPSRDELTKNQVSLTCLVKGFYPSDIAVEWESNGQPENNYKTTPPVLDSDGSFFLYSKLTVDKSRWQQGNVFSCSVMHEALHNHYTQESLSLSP
light: DIVMTQSPLSLPVTPGEPASISCQASESLVHSNRNTYLHWYLQKPGQSPQLLIYKVSNRFSGVPDRFSGSGSGTDFTLKISRVEAEDVGVYYCSQNTHVPPTFGQGTKVEIERTVAAPSVFIFPPSDEQLKSGTASVVCLLNNFYPREAKVQWKVDNALQSGNSQESVTEQDSKDSTYSLSSTLTLSKADYEKHKVYACEVTHQGLSSPVTKSFNRGEC
notes: also called Ho Ab A330_01G
B6: GpH7-B3 variant G237_09D/GpL16-k0 (antibody, human IgG1, kappa)
heavy: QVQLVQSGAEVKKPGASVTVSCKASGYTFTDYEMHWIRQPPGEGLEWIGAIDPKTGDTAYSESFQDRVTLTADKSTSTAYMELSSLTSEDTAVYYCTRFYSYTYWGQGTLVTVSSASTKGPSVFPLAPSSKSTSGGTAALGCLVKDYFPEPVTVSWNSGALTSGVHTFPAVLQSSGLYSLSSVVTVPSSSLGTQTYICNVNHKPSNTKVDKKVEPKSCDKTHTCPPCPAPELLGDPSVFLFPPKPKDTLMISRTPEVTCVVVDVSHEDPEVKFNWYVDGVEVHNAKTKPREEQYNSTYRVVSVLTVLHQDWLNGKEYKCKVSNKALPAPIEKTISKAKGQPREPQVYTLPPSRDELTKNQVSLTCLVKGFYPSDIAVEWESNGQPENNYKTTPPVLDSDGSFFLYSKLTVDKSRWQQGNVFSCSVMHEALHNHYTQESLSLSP
light: DIVMTQSPLSLPVTPGEPASISCQASESLVHSNRNTYLHWYLQKPGQSPQLLIYKVSNRFSGVPDRFSGSGSGTDFTLKISRVEAEDVGVYYCSQNTHVPPTFGQGTKVEIERTVAAPSVFIFPPSDEQLKSGTASVVCLLNNFYPREAKVQWKVDNALQSGNSQESVTEQDSKDSTYSLSSTLTLSKADYEKHKVYACEVTHQGLSSPVTKSFNRGEC
notes: also called Ho Ab G237_09D
B7: GpH7-B3 variant G237_15Y/GpL16-k0 (antibody, human IgG1, kappa)
heavy: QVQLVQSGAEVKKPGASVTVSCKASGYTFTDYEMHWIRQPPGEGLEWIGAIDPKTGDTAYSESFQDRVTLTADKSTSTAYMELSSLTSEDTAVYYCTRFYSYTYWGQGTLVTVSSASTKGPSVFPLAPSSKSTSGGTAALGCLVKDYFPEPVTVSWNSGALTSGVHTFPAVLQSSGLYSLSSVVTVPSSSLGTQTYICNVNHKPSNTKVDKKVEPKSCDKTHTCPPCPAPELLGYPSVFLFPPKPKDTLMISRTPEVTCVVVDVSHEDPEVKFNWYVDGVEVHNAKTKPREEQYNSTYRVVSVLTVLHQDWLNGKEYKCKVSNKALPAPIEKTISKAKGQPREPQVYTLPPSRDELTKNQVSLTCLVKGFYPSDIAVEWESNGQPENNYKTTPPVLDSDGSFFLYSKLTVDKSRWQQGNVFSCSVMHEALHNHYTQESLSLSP
light: DIVMTQSPLSLPVTPGEPASISCQASESLVHSNRNTYLHWYLQKPGQSPQLLIYKVSNRFSGVPDRFSGSGSGTDFTLKISRVEAEDVGVYYCSQNTHVPPTFGQGTKVEIERTVAAPSVFIFPPSDEQLKSGTASVVCLLNNFYPREAKVQWKVDNALQSGNSQESVTEQDSKDSTYSLSSTLTLSKADYEKHKVYACEVTHQGLSSPVTKSFNRGEC
notes: also called Ho Ab G237_15Y
B8: GpH7-B3 variant G237_04F/GpL16-k0 (antibody, human IgG1, kappa)
heavy: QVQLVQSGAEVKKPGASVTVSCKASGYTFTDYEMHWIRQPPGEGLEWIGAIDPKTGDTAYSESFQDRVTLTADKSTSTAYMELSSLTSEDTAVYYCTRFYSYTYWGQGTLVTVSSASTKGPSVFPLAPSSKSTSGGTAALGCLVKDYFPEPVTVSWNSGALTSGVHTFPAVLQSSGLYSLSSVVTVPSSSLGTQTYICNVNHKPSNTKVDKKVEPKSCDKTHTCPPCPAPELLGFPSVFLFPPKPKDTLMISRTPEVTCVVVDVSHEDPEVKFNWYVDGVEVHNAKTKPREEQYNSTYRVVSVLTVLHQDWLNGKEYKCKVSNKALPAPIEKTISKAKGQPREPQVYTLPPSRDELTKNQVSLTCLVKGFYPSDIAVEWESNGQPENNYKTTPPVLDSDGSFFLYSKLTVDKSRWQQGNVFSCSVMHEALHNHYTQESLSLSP
light: DIVMTQSPLSLPVTPGEPASISCQASESLVHSNRNTYLHWYLQKPGQSPQLLIYKVSNRFSGVPDRFSGSGSGTDFTLKISRVEAEDVGVYYCSQNTHVPPTFGQGTKVEIERTVAAPSVFIFPPSDEQLKSGTASVVCLLNNFYPREAKVQWKVDNALQSGNSQESVTEQDSKDSTYSLSSTLTLSKADYEKHKVYACEVTHQGLSSPVTKSFNRGEC
notes: also called Ho Ab G237_04F
B9: GpH7-B3 variant A327_07I/GpL16-k0 (antibody, human IgG1, kappa)
heavy: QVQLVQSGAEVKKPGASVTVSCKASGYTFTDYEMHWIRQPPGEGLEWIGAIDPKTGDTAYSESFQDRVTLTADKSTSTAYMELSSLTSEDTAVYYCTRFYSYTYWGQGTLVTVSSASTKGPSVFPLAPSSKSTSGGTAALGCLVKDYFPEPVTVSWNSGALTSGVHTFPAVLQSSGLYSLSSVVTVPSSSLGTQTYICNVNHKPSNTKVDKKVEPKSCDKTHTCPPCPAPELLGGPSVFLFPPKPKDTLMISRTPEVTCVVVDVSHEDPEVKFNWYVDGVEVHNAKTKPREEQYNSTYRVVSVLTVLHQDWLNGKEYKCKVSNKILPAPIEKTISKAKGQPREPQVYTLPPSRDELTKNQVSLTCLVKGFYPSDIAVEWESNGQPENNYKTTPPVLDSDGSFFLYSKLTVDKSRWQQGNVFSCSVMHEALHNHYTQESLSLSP
light: DIVMTQSPLSLPVTPGEPASISCQASESLVHSNRNTYLHWYLQKPGQSPQLLIYKVSNRFSGVPDRFSGSGSGTDFTLKISRVEAEDVGVYYCSQNTHVPPTFGQGTKVEIERTVAAPSVFIFPPSDEQLKSGTASVVCLLNNFYPREAKVQWKVDNALQSGNSQESVTEQDSKDSTYSLSSTLTLSKADYEKHKVYACEVTHQGLSSPVTKSFNRGEC
notes: also called Ho Ab A327_07I
B10: GpH7-B3 variant G237_08L/GpL16-k0 (antibody, human IgG1, kappa)
heavy: not shown
light: DIVMTQSPLSLPVTPGEPASISCQASESLVHSNRNTYLHWYLQKPGQSPQLLIYKVSNRFSGVPDRFSGSGSGTDFTLKISRVEAEDVGVYYCSQNTHVPPTFGQGTKVEIERTVAAPSVFIFPPSDEQLKSGTASVVCLLNNFYPREAKVQWKVDNALQSGNSQESVTEQDSKDSTYSLSSTLTLSKADYEKHKVYACEVTHQGLSSPVTKSFNRGEC
notes: also called Ho Ab G237_08L
B11: GpH7-B3 variant G237_06M/GpL16-k0 (antibody, human IgG1, kappa)
heavy: not shown
light: DIVMTQSPLSLPVTPGEPASISCQASESLVHSNRNTYLHWYLQKPGQSPQLLIYKVSNRFSGVPDRFSGSGSGTDFTLKISRVEAEDVGVYYCSQNTHVPPTFGQGTKVEIERTVAAPSVFIFPPSDEQLKSGTASVVCLLNNFYPREAKVQWKVDNALQSGNSQESVTEQDSKDSTYSLSSTLTLSKADYEKHKVYACEVTHQGLSSPVTKSFNRGEC
notes: also called Ho Ab G237_06M
B12: GpH7-B3 variant G237_13S/GpL16-k0 (antibody, human IgG1, kappa)
heavy: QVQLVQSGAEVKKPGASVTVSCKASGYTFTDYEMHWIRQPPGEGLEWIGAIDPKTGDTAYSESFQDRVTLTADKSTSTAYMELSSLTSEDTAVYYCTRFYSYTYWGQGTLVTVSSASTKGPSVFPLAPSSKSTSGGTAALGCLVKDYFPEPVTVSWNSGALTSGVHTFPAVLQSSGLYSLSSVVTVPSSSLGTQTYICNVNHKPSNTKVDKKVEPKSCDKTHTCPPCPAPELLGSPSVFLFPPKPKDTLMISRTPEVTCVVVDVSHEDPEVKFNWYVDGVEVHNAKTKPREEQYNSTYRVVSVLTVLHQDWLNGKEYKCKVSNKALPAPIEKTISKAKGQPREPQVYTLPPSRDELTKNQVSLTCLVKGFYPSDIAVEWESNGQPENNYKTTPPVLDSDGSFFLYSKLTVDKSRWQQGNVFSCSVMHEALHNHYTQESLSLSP
light: DIVMTQSPLSLPVTPGEPASISCQASESLVHSNRNTYLHWYLQKPGQSPQLLIYKVSNRFSGVPDRFSGSGSGTDFTLKISRVEAEDVGVYYCSQNTHVPPTFGQGTKVEIERTVAAPSVFIFPPSDEQLKSGTASVVCLLNNFYPREAKVQWKVDNALQSGNSQESVTEQDSKDSTYSLSSTLTLSKADYEKHKVYACEVTHQGLSSPVTKSFNRGEC
notes: also called Ho Ab G237_13S
B13: GpH7-B3 variant G237_10E/GpL16-k0 (antibody, human IgG1, kappa)
heavy: not shown
light: DIVMTQSPLSLPVTPGEPASISCQASESLVHSNRNTYLHWYLQKPGQSPQLLIYKVSNRFSGVPDRFSGSGSGTDFTLKISRVEAEDVGVYYCSQNTHVPPTFGQGTKVEIERTVAAPSVFIFPPSDEQLKSGTASVVCLLNNFYPREAKVQWKVDNALQSGNSQESVTEQDSKDSTYSLSSTLTLSKADYEKHKVYACEVTHQGLSSPVTKSFNRGEC
notes: also called Ho Ab G237_10E
B14: GpH7-B3 variant A327_18N/GpL16-k0 (antibody, human IgG1, kappa)
heavy: not shown
light: DIVMTQSPLSLPVTPGEPASISCQASESLVHSNRNTYLHWYLQKPGQSPQLLIYKVSNRFSGVPDRFSGSGSGTDFTLKISRVEAEDVGVYYCSQNTHVPPTFGQGTKVEIERTVAAPSVFIFPPSDEQLKSGTASVVCLLNNFYPREAKVQWKVDNALQSGNSQESVTEQDSKDSTYSLSSTLTLSKADYEKHKVYACEVTHQGLSSPVTKSFNRGEC
notes: also called Ho Ab A327_18N
B15: GpH7-B3 variant S239_08L/GpL16-k0 (antibody, human IgG1, kappa)
heavy: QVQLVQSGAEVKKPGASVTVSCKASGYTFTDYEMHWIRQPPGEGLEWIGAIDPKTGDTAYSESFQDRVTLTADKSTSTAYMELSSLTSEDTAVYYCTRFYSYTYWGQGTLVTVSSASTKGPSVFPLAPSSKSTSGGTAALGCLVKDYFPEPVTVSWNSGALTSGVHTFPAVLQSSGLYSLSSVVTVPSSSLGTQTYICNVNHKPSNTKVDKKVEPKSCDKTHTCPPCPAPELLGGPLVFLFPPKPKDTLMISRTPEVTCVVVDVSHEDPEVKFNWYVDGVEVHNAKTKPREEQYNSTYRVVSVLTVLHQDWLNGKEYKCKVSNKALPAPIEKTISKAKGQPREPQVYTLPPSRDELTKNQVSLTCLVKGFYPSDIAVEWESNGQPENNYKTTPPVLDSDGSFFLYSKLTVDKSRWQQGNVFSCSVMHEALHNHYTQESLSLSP
light: DIVMTQSPLSLPVTPGEPASISCQASESLVHSNRNTYLHWYLQKPGQSPQLLIYKVSNRFSGVPDRFSGSGSGTDFTLKISRVEAEDVGVYYCSQNTHVPPTFGQGTKVEIERTVAAPSVFIFPPSDEQLKSGTASVVCLLNNFYPREAKVQWKVDNALQSGNSQESVTEQDSKDSTYSLSSTLTLSKADYEKHKVYACEVTHQGLSSPVTKSFNRGEC
notes: also called Ho Ab S239_08L
B16: GpH7-B3 variant P331_20W/GpL16-k0 (antibody, human IgG1, kappa)
heavy: not shown
light: DIVMTQSPLSLPVTPGEPASISCQASESLVHSNRNTYLHWYLQKPGQSPQLLIYKVSNRFSGVPDRFSGSGSGTDFTLKISRVEAEDVGVYYCSQNTHVPPTFGQGTKVEIERTVAAPSVFIFPPSDEQLKSGTASVVCLLNNFYPREAKVQWKVDNALQSGNSQESVTEQDSKDSTYSLSSTLTLSKADYEKHKVYACEVTHQGLSSPVTKSFNRGEC
notes: also called Ho Ab P331_20W
B17: GpH7-B3 variant S239_18N/GpL16-k0 (antibody, human IgG1, kappa)
heavy: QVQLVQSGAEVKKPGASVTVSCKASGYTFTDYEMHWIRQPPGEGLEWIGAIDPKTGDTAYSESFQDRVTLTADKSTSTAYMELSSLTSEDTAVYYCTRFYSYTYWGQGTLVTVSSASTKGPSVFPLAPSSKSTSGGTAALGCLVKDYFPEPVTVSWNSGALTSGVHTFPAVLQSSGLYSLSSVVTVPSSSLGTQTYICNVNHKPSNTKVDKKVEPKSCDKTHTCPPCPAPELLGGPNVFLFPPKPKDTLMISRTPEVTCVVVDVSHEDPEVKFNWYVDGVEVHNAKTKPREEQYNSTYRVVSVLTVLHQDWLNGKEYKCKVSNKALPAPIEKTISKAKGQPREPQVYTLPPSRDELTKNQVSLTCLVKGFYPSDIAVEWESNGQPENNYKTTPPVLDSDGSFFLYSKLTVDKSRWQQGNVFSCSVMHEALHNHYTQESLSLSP
light: DIVMTQSPLSLPVTPGEPASISCQASESLVHSNRNTYLHWYLQKPGQSPQLLIYKVSNRFSGVPDRFSGSGSGTDFTLKISRVEAEDVGVYYCSQNTHVPPTFGQGTKVEIERTVAAPSVFIFPPSDEQLKSGTASVVCLLNNFYPREAKVQWKVDNALQSGNSQESVTEQDSKDSTYSLSSTLTLSKADYEKHKVYACEVTHQGLSSPVTKSFNRGEC
notes: also called Ho Ab S239_18N
B18: GpH7-B3 variant S239_10E/GpL16-k0 (antibody, human IgG1, kappa)
heavy: not shown
light: DIVMTQSPLSLPVTPGEPASISCQASESLVHSNRNTYLHWYLQKPGQSPQLLIYKVSNRFSGVPDRFSGSGSGTDFTLKISRVEAEDVGVYYCSQNTHVPPTFGQGTKVEIERTVAAPSVFIFPPSDEQLKSGTASVVCLLNNFYPREAKVQWKVDNALQSGNSQESVTEQDSKDSTYSLSSTLTLSKADYEKHKVYACEVTHQGLSSPVTKSFNRGEC
notes: also called Ho Ab S239_10E
B19: GpH7-B3 variant S267_03V/GpL16-k0 (antibody, human IgG1, kappa)
heavy: not shown
light: DIVMTQSPLSLPVTPGEPASISCQASESLVHSNRNTYLHWYLQKPGQSPQLLIYKVSNRFSGVPDRFSGSGSGTDFTLKISRVEAEDVGVYYCSQNTHVPPTFGQGTKVEIERTVAAPSVFIFPPSDEQLKSGTASVVCLLNNFYPREAKVQWKVDNALQSGNSQESVTEQDSKDSTYSLSSTLTLSKADYEKHKVYACEVTHQGLSSPVTKSFNRGEC
notes: also called Ho Ab S267_03V

One assay has as its target T1, FcγRIIb (human, UniProt P31994 43-217).
T1 construct: extracellular domain; also called 2b; FcgRIIb
T1 sequence (looked up): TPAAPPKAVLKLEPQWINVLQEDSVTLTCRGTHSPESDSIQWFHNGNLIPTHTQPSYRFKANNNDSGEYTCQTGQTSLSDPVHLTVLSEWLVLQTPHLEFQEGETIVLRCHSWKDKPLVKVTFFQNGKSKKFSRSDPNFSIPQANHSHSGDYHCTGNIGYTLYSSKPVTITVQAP
As to the kind of experiment: SPR (Biacore), binding relative to GpH7-B3/GpL16-k0 = 100. Here is the method: Analysis of interaction between objective antibody and the FcγR was carried out using Biacore T100 (GE Healthcare). HBS-EP+ (GE Healthcare) was used as the running buffer, and the measurement temperature was set to 25° C. Chips produced by immobilizing the antigen peptide by the amine coupling method to a Series S Sencor Chip CM5 (GE Healthcare), or alternatively, chips produced by allowing preliminarily biotinylated antigen peptides to interact with and immobilize onto a Series S Sensor Chip SA (certified) (GE Healthcare) were used. Antibodies of interest were captured onto an antigen peptide-immobilized chip, and allowed to interact to each FcγR diluted with running buffer. To regenerate and repeatedly use the chip, the antibodies captured on the chip were washed off by reacting 10 mM glycine-HCl, pH 1.5.
The FcγR-binding activity of each antibody was assessed primarily using as an indicator the FcγR-binding activity and dissociation constant for FcγR.
(SPR reads the build-up and loss of mass on a sensor chip optically.)
Consider B1, for which the Ho/Con_2b is 47.8 % of control.

As for B2, the Ho/Con_2b is 63.9 % of control.

For B3, the Ho/Con_2b is 35.3 % of control.

With B4, the Ho/Con_2b was 5.3 % of control.

With B5, the Ho/Con_2b is 102 % of control.

Consider B6, for which the Ho/Con_2b is 92.9 % of control.

Take B7: the Ho/Con_2b was 83.1 % of control.

Consider B8, for which the Ho/Con_2b was 140 % of control.

For the molecule B9, the Ho/Con_2b is 37.6 % of control.

In the case of B10, the Ho/Con_2b is 49.4 % of control.

Regarding B11, the Ho/Con_2b is 35.3 % of control.

In the case of B12, the Ho/Con_2b was 25.7 % of control.

Regarding B13, the Ho/Con_2b was 17.8 % of control.

For B14, the Ho/Con_2b is 101 % of control.

A further assay concerns the target T2, FcγRIIa R (human, UniProt P12318 34-217).
T2 construct: extracellular domain; also called FcgRIIa R type; 2aR
T2 sequence (looked up): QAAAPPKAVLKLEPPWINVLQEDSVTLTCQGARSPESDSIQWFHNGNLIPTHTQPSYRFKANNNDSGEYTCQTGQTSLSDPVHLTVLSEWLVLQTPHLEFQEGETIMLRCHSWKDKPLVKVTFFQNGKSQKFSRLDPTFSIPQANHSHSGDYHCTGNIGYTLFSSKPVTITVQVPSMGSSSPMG
As to the kind of experiment: SPR Biacore; vs GpH7-B3/GpL16-k0 =100.
Consider B15, for which the Ho/Con_2aR was 106 % of control.

Regarding B16, the Ho/Con_2aR is 102 % of control.

With B17, the Ho/Con_2aR is 103 % of control.

B18: the Ho/Con_2aR was 122 % of control.

Regarding B19, the Ho/Con_2aR is 115 % of control.
